Data as given in IntAct's records for PubMed 14673118.

B1: Thioredoxin (Synechocystis sp. (strain PCC 6803 / Kazusa)), P52231 (parent)
chain: MSATPQVSDASFKEDVLDSELPVLVDFWAPWCGPCRMVAPVVDEISQQYEGKVKVVKLNTDENPNTASQYGIRSIPTLMIFKGGQRVDMVVGAVPKTTLASTLEKYL
partner: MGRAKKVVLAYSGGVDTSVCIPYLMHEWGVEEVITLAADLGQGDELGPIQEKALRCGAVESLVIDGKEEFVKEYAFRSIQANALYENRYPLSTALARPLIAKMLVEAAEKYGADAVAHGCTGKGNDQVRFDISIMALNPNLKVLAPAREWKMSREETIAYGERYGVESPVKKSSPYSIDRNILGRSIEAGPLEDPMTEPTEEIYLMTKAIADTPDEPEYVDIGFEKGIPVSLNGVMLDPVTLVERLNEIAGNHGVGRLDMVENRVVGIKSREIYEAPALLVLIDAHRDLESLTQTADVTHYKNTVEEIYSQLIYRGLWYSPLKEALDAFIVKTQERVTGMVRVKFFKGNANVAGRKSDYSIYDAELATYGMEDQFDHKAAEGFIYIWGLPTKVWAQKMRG
B2: Thioredoxin (Synechocystis sp. (strain PCC 6803 / Kazusa)), P52231 (parent)
chain: B1 chain
partner: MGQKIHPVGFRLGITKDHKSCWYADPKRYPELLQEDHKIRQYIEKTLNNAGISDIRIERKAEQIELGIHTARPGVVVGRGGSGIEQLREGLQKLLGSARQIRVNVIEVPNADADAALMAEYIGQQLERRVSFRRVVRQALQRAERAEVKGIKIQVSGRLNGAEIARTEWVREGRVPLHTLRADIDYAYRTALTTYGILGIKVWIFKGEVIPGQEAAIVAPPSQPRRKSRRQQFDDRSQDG
B3: Thioredoxin (Synechocystis sp. (strain PCC 6803 / Kazusa)), P52231 (parent)
chain: B1 chain
partner: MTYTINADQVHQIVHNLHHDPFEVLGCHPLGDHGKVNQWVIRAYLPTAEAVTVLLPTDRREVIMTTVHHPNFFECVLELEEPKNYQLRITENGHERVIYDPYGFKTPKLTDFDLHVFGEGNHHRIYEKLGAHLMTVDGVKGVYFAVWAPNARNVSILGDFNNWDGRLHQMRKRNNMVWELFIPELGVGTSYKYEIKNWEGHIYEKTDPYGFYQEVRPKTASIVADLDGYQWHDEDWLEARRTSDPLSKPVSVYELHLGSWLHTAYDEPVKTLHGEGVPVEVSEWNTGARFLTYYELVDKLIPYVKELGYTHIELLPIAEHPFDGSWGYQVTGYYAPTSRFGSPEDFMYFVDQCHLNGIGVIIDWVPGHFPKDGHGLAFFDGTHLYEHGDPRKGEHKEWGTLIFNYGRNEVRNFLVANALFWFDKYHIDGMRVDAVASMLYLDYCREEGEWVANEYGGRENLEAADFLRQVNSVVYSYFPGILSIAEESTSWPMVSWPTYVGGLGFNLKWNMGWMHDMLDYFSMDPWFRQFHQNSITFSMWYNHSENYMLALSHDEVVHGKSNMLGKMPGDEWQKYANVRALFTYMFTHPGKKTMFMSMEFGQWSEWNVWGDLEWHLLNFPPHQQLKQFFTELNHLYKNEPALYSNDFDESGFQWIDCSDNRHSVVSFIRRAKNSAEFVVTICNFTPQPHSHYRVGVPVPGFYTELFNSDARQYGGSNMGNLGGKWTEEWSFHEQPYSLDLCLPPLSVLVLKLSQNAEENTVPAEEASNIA
B4: Thioredoxin (Synechocystis sp. (strain PCC 6803 / Kazusa)), P52231 (parent)
chain: B1 chain
partner: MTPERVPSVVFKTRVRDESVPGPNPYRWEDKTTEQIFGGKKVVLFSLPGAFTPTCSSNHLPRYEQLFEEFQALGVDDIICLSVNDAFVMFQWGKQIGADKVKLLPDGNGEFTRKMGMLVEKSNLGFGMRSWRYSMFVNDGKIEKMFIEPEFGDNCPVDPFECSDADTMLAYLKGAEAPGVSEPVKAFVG
B5: Thioredoxin (Synechocystis sp. (strain PCC 6803 / Kazusa)), P52231 (parent)
chain: B1 chain
partner: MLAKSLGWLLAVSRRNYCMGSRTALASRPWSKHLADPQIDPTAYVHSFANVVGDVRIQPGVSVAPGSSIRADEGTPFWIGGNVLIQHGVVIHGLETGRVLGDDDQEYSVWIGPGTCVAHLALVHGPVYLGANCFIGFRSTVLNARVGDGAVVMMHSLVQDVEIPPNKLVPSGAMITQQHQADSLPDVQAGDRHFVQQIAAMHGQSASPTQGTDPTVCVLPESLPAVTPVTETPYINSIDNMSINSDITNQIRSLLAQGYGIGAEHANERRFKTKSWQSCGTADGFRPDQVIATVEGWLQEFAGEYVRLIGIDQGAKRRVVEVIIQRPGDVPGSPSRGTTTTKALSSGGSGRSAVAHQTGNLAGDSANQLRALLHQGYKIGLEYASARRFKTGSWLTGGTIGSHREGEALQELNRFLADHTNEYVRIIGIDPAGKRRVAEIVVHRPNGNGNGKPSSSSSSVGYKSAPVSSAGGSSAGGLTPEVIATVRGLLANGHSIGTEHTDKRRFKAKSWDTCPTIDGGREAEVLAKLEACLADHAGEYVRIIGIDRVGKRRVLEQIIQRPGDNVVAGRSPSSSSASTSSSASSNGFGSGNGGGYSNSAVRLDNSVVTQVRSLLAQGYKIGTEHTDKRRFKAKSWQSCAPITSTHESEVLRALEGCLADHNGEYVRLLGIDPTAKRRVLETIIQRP

Variants of: B1
Conditions: with assy_syny3 argG

effect of a mutation on the interaction | Variant
increasing interaction | MSATPQVSDASFKEDVLDSELPVLVDFWAPWCGPSRMVAPVVDEISQQYEGKVKVVKLNTDENPNTASQYGIRSIPTLMIFKGGQRVDMVVGAVPKTTLASTLEKYL

Variants of: B2
Conditions: with rs3_syny3 rpsC

effect of a mutation on the interaction | Variant
increasing interaction | MSATPQVSDASFKEDVLDSELPVLVDFWAPWCGPSRMVAPVVDEISQQYEGKVKVVKLNTDENPNTASQYGIRSIPTLMIFKGGQRVDMVVGAVPKTTLASTLEKYL

Variants of: B3
Conditions: with glgb_syny3 glgB

effect of a mutation on the interaction | Variant
increasing interaction | MSATPQVSDASFKEDVLDSELPVLVDFWAPWCGPSRMVAPVVDEISQQYEGKVKVVKLNTDENPNTASQYGIRSIPTLMIFKGGQRVDMVVGAVPKTTLASTLEKYL

Variants of: B4
Conditions: with prx5_syny3 prx5, P73728

effect of a mutation on the interaction | Variant
increasing interaction | MSATPQVSDASFKEDVLDSELPVLVDFWAPWCGPSRMVAPVVDEISQQYEGKVKVVKLNTDENPNTASQYGIRSIPTLMIFKGGQRVDMVVGAVPKTTLASTLEKYL

Variants of: B5
Conditions: with ccmm_syny3 ccmM

effect of a mutation on the interaction | Variant
increasing interaction | MSATPQVSDASFKEDVLDSELPVLVDFWAPWCGPSRMVAPVVDEISQQYEGKVKVVKLNTDENPNTASQYGIRSIPTLMIFKGGQRVDMVVGAVPKTTLASTLEKYL
